Literature values, collected in paper PMC10955226.

Target: WWC1 WW tandem (Homo sapiens) (UniProt Q8IX03)
Sequence of UniProt Q8IX03 (Q8IX03 6-86): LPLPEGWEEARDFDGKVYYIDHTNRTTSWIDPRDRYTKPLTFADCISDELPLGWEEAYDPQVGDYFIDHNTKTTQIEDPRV

JCAD PPxY motifs (from UniProt Q9P266)
Kd: 0.058 µM
